From US20040109854A1 come the findings set out here.

The target in the test is TRAF6 dm (amino acids 1-274) fused to the GAL4 DNA binding domain (pGBT9-TRAF6 dm) (yeast; human) (UniProt P04386). As to the kind of experiment: cell-based or functional assay.

Turning to “recombinant TRAF6-inhibiting protein fused with the transcription activation domain of GAL4 (full length cDNA in pGAD424, expressed in yeast Y190) (from UniProt Q8TD23 1-568)”, the β-galactosidase activity titer (liquid β-galactosidase assay, yeast two-hybrid) was 21 unit.
